Results taken from patent publication US20110159009A1.

Biological target: mouse VEGF-A (mouse) (UniProt Q00731)
Experiment: cell-based or functional assay

Chain of mouse VEGF-A (mouse) (Q00731 other isoform, or with tags, fused parts or gaps limits assumed): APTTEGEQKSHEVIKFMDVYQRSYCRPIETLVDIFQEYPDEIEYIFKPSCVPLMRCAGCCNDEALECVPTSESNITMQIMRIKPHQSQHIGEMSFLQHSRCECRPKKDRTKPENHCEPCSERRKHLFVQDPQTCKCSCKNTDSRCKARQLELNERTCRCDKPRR

BRME proliferation (Alamar blue): > 1500 nM
Substance: Bevacizumab (BV) (antibody)
